Measured values as given in paper PMC3601010 (BMC Biochemistry, 2013).
Ends that are not written are not given here.

Legend:
α-thrombin [1] = biological target: T1, α-thrombin (UniProt P00734 364-622); test: ELISA; competition: HCII 1-75 immobilised on microtiter wells; competitor peptides added with 5 nM α-thrombin; ratio of absorbance with and without competitor; IC50 by linear regression of log-transformed plots; conditions: both partners purified
α-thrombin [2] = biological target: T1, α-thrombin; test: SPR; competition: BIAcore X, 25°C; biotinylated HCII 1-75 on streptavidin-coated chip; peptides combined with 250 nM thrombin immediately before flowing over the chip; Ki from IC50 and the KD of 340 nM; conditions: both partners purified
α-thrombin [3] = biological target: T1, α-thrombin; test: cell-based or functional assay

B1: HCII 54-75 (synthetic peptide containing residues 54-75 of human HCII and a nonapeptide N-terminal tag) (peptide)
chain: GEEDDDYLDLEKIFSEDDDYID
modifications: not fully specified (N-terminus); ends and bridges not checked; also: nonapeptide N-terminal tag, unmodified amino terminus
α-thrombin [1]
  IC50: 110 µM
α-thrombin [2]
  Ki: 8.5 µM
  Ki of equimolar HCII 54-75 and HCII 1-53: 13 µM
α-thrombin [3]
  fold reduction of the apparent second-order rate constant of inhibition of 14 nM thrombin by 140 nM plasma-derived HCII with 55 μg/mL standard heparin, 250 μM peptide (Figure 5A): 1.6 fold
  fold reduction of the apparent second-order rate constant of inhibition of thrombin by plasma-derived HCII with 1.4 μM dermatan sulfate, 250 μM peptide (Figure 5B): 1.6 fold
